Test results from patent US20090156490A1.
Where no end group is shown, it is not given here. bis‑dPEG6 = hexa-ethylene glycol bifunctional linker (bis-dPEG6 NHS ester)

T1: 33-mer gliadin peptide (non-deamidated, α2-gliadin residues 57-89)
T1 chain: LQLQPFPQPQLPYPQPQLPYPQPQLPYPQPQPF


How the values were obtained:
[1] = target: T1, 33-mer gliadin peptide (non-deamidated, …)
[2] = target: soluble HLA-DQ2 heterodimer (purified, thrombin-treated DQ2-ligand fusion protein) (human); test: peptide exchange kinetics (HPSEC, fluorescein-labelled peptide, soluble DQ2)
[3] = target: soluble HLA-DQ2 heterodimer (purified, thrombin-treated DQ2-ligand fusion protein) (human); test: peptide exchange kinetics (HPSEC, fluorescein-labelled peptide, soluble DQ2), pH 7.3
[4] = target: soluble HLA-DQ2 heterodimer (purified, thrombin-treated DQ2-ligand fusion protein) (human); test: peptide exchange assay (HPSEC, fluorescein-labelled peptide 0.18 µM, soluble DQ2 4.7 µM, 37 C, 45 h), pH 5.5

Binder | time to half maximal DQ2 occupancy [2] | maximum occupancy [3] | binding maximum (DQ2 bound peptide as a percentage of total peptide) [4] | kcat/KM of deamidation [1]
human tissue transglutaminase (tTGase) (protein) AEELVLERCDLELETNGRDHHTADLCREKLVVRRGQPFWLTLHFEGRNYEASVDSLTFSVVTGPAPSQEAGTKARFPLRDAVEEGDWTATVVDQQDCTLSLQLTTPANAPIGLYRLSLEASTGYQGSSFVLGHFILLFNAWCPADAVYLDSEEERQEYVLTQQGFIYQGSAKFIKNIPWNFGQFEDGILDICLILLDVNPKFLKNAGRDCSRRSSPVYVGRVVSGMVNCNDDQGVLLGRWDNNYGDGVSPMSWIGSVDILRRWKNHGCQRVKYGQCWVFAAVACTVLRCLGIPTRVVTNYNSAHDQNSNLLIEYFRNEFGEIQGDKSEMIWNFHCWVESWMTRPDLQPGYEGWQALDPTPQEKSEGTYCCGPVPVRAIKEGDLSTKYDAPFVFAEVNADVVDWIQQDDGSVHKSINRSLIVGLKISTKSVGRDEREDITHTYKYPEGSSEEREAFTRANHLNKLAEKEETGMAMRIRVGQSMNMGSDFDVFAHITNNTAEEYVCRLLLCARTVSYNGILGPECGTKYLLNLNLEPFSEKSVPLCILYEKYRDCLTESNLIKVRALLVEPVINSYLLAERDLYLENPEIKIRILGEPKQKRKLVAEVSLQNPLPVALEGCTFTVEGAGLTEEQKTVEIPDPVEAGEEVKVRMDLLPLHMGLHKLVVNFESDKLKAVKGFRNVIIGPA |  |  |  | kcat/KM=440 min-1 mM-1
{5(6)‑carboxyfluorescein}-LQLQPFPQPELPYPQPELPYPQPELPYPQPQPF (not fully specified) [33-mer peptide 1 (deamidated 33-mer from α2-gliadin)] | 8 h | 28% |  | 

The next lines start with results.

time to half maximal DQ2 occupancy [2] | maximum occupancy [3] | binding maximum (DQ2 bound peptide as a percentage of total peptide) [4] | Binder | kcat/KM of deamidation [1]
2.5 h | 40% |  | {5‑(and 6-)carboxyfluorescein}-LQLQPFPQPEK(bis‑dPEG6)PYPQPELPY (also: dimer: two copies crosslinked through Lys11 side chains via hexa-ethylene glycol linker) | 
 |  | 7% | {5(6)‑carboxyfluorescein}-PQPELPYPQ (not fully specified) [peptide 3 (minimal αII epitope)] | 
